# Where two headings read alike, the source gives them in different places.
# How the values were obtained:
# Assay in all cases: cell-based or functional assay
# [1] = target: T1, CD19 on CD19 +ve cell lines (Daudi, Ramos, WSU-DLCL2) (human, UniProt P15391 20-556)
# T1 sequence (looked up): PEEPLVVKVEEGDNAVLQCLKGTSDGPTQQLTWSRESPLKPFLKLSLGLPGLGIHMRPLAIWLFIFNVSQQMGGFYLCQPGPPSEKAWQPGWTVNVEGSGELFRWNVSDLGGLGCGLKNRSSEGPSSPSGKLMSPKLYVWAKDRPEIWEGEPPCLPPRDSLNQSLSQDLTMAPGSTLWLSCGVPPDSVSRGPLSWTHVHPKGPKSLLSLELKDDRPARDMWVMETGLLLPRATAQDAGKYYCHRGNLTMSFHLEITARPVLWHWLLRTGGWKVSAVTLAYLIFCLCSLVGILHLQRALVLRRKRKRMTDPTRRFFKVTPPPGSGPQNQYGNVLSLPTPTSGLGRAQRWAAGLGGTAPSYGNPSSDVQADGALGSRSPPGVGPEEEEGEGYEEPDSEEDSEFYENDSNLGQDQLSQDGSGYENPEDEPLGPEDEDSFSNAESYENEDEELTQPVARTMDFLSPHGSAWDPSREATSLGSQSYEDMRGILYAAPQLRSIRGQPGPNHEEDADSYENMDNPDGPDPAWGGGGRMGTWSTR
# [2] = target: T1, CD19 on CD19 +ve cell lines (Daudi, …); remark: listed apart in the source
# [3] = target: T1, CD19 on CD19 +ve cell lines (Daudi, …); remark: listed apart in the source
binder,measurement,setting,value
"RB4v1.2-A (anti-CD19 antibody RB4v1.2 conjugated to PBD drug linker A) (antibody, DAR 2.2, V domains shown, PBD dimer drug linker A attached to cysteine thiols after TCEP reduction; positions not given; DAR 2.2 for the whole ADC) VH: QVQLVQPGAEVVKPGASVKLSCKTSGYTFTSNWMHWVKQAPGQGLEWIGEIDPSDSYTNYNQNFQGKAKLTVDKSTSTAYMEVSSLRSDDTAVYYCARGSNPYYYAMDYWGQGTSVTVS VL: EIVLTQSPAIMSASPGERVTMTCSASSGVNYMHWYQQKPGTSPRRWIYDTSKLASGVPARFSGSGSGTSYSLTISSMEPEDAATYYCHQRGSYTFGGGTKLEIK","EC50 (µg/mL), in vitro cytotoxicity, Alamar Blue cell survival, Daudi cells",[1],0.00112 µg/mL
same,"EC50 (µg/mL), in vitro cytotoxicity, Alamar Blue cell survival, Ramos cells",[1],0.00102 µg/mL
same,"EC50 (µg/mL), in vitro cytotoxicity, Alamar Blue cell survival, WSU-DLCL2 cells",[1],0.117 µg/mL
"RB4v1.2-D (anti-CD19 antibody RB4v1.2 conjugated to PBD drug linker D) (antibody, DAR 2.18, V domains shown, PBD dimer drug linker D (iodoacetamide) attached to cysteine thiols after TCEP reduction; positions not given; DAR 2.18 for the whole ADC) VH: QVQLVQPGAEVVKPGASVKLSCKTSGYTFTSNWMHWVKQAPGQGLEWIGEIDPSDSYTNYNQNFQGKAKLTVDKSTSTAYMEVSSLRSDDTAVYYCARGSNPYYYAMDYWGQGTSVTVS VL: EIVLTQSPAIMSASPGERVTMTCSASSGVNYMHWYQQKPGTSPRRWIYDTSKLASGVPARFSGSGSGTSYSLTISSMEPEDAATYYCHQRGSYTFGGGTKLEIK","EC50 (µg/mL), in vitro cytotoxicity, Alamar Blue cell survival, Daudi cells",[2],0.00102 µg/mL
same,"EC50 (µg/mL), in vitro cytotoxicity, Alamar Blue cell survival, Ramos cells",[2],0.000798 µg/mL
same,"EC50 (µg/mL), in vitro cytotoxicity, Alamar Blue cell survival, WSU-DLCL2 cells",[2],0.0219 µg/mL
"RB4v1.2-E (anti-CD19 antibody RB4v1.2 conjugated to PBD drug linker E) (antibody, DAR 1.93, V domains shown, PBD dimer drug linker E attached to cysteine thiols after TCEP reduction; positions not given; DAR 1.93 for the whole ADC) VH: QVQLVQPGAEVVKPGASVKLSCKTSGYTFTSNWMHWVKQAPGQGLEWIGEIDPSDSYTNYNQNFQGKAKLTVDKSTSTAYMEVSSLRSDDTAVYYCARGSNPYYYAMDYWGQGTSVTVS VL: EIVLTQSPAIMSASPGERVTMTCSASSGVNYMHWYQQKPGTSPRRWIYDTSKLASGVPARFSGSGSGTSYSLTISSMEPEDAATYYCHQRGSYTFGGGTKLEIK","EC50 (µg/mL), in vitro cytotoxicity, Alamar Blue cell survival, Daudi cells",[3],0.00122 µg/mL
same,"EC50 (µg/mL), in vitro cytotoxicity, Alamar Blue cell survival, Ramos cells",[3],0.00147 µg/mL
same,"EC50 (µg/mL), in vitro cytotoxicity, Alamar Blue cell survival, WSU-DLCL2 cells",[3],0.031 µg/mL

# From US20150283262A1 (AstraZeneca / MedImmune, published 2015)
